According to publication PMC7199903:

Biological target: recombinant soluble SARS-CoV-2 spike (S) glycoprotein, prefusion-stabilised trimer (2P, GSAS, C-terminal trimerization motif) (SARS-CoV-2)
Assay: negative-stain EM

recombinant soluble SARS-CoV-2 spike (S) glycoprotein, prefusion-stabilised trimer (2P, GSAS, C-terminal trimerization motif) (domain or fragment)
stoichiometry N: 3
